Here are results for 19 molecules from US20160297884A1 (Pfizer, published 2016).

Numbering of substitutions follows the chain as printed.

T1: Human BCMA (human, UniProt Q02223 1-54, limits assumed)
T1 construct: Soluble analyte in SPR; construct not described; also called huBCMA; B-cell maturation antigen
T1 sequence (looked up): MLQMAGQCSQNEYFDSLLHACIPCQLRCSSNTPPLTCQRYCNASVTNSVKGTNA

B1: L3.PY/H3.AQ (antibody, V domains shown)
VH: EVQLLESGGGLVQPGGSLRLSCAASGFTFGSYAMTWVRQAPGKGLEWVSAISGSGGNTFYADSVKGRFTISRDNSKNTLYLQMNSLRAEDTAVYYCARVSPIAAQMDYWGQGTLVTVSS
VL: EIVLTQSPGTLSLSPGERATLSCRASQSVSSSYLAWYQQKPGQAPRLLIYGASSRATGIPDRFSGSGSGTDFTLTISRLEPEDFAVYYCQHYPYPPSFTFGQGTKVEIK
notes: IgG
B2: L3.PY/L1.AH/H2.LT (antibody, V domains shown)
VH: B1 VH with G53L, S54T, A104S, Q105G
VL: B1 VL with S31A, S32H
notes: IgG
B3: L3.PY/L1.AH/H3.YA (antibody, V domains shown)
VH: B1 VH with A103Y, Q105G
VL: B1 VL with S31A, S32H
notes: IgG
B4: L3.PY/L1.PS/H2.HA (antibody, V domains shown)
VH: B1 VH with G53H, S54A, A104S, Q105G
VL: B1 VL with L34P, A35S
notes: IgG
B5: L3.PY/L1.AH/H2.YQ (antibody, V domains shown)
VH: B1 VH with G53Y, S54Q, A104S, Q105G
VL: B1 VL with S31A, S32H
notes: IgG
B6: L3.PY/L1.FF/P6E01 (antibody, V domains shown)
VH: B1 VH with A104S, Q105G
VL: B1 VL with S32F, Y33F
notes: IgG
B7: L3.PY/L1.AH/H3.AE (antibody, V domains shown)
VH: B1 VH with Q105E
VL: B1 VL with S31A, S32H
notes: IgG
B8: L3.PY/L1.AH/P6E01 (antibody, V domains shown)
VH: B1 VH with A104S, Q105G
VL: B1 VL with S31A, S32H
notes: IgG
B9: L3.PY/L1.AH/H2.QR (antibody, V domains shown)
VH: B1 VH with S63Q, V64R, A104S, Q105G
VL: B1 VL with S31A, S32H
notes: IgG
B10: L3.PY/H3.YA (antibody, V domains shown)
VH: B1 VH with A103Y, Q105G
VL: B1 VL
notes: IgG
B11: L3.PY/H3.TAQ (antibody, V domains shown)
VH: B1 VH with A97T
VL: B1 VL
notes: IgG
B12: L3.PY/L1.PS/H2.DY (antibody, V domains shown)
VH: B1 VH with S52D, G53Y, A104S, Q105G
VL: B1 VL with L34P, A35S
notes: IgG
B13: L3.PY/L1.AH/H2.HA (antibody, V domains shown)
VH: B1 VH with G53H, S54A, A104S, Q105G
VL: B1 VL with S31A, S32H
notes: IgG
B14: L3.PY/L1.PS/H2.LT (antibody, V domains shown)
VH: B1 VH with G53L, S54T, A104S, Q105G
VL: B1 VL with L34P, A35S
notes: IgG
B15: L3.PY/L1.AH/H2.DY (antibody, V domains shown)
VH: B1 VH with S52D, G53Y, A104S, Q105G
VL: B1 VL with S31A, S32H
notes: IgG
B16: L3.PY/L1.AH/H3.AQ (antibody, V domains shown)
VH: B1 VH
VL: B1 VL with S31A, S32H
notes: IgG
B17: L3.PY/L1.PS/H2.QL (antibody, V domains shown)
VH: B1 VH with S63Q, V64L, A104S, Q105G
VL: B1 VL with L34P, A35S
notes: IgG
B18: L3.PY/L1.PH/P6E01 (antibody, V domains shown)
VH: B1 VH with A104S, Q105G
VL: B1 VL with S31P, S32H
notes: IgG
B19: L3.PY/L1.AH/H2.QL (antibody, V domains shown)
VH: B1 VH with S63Q, V64L, A104S, Q105G
VL: B1 VL with S31A, S32H
notes: IgG

The target of the first experiment is T1, Human BCMA. Description: SPR, IgG immobilised, 37 C. In a few lines:
(§1)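 IgG amine-coupled to the chip; human or cynomolgus BCMA analyte injected by kinetic titration at 0.08–50 nM (2 min each), 2 h dissociation, in HBS-T+ with 1 mg/mL BSA, pH 7.4, at 37° C or 25° C. Double-referenced sensorgrams fit to 1:1 Langmuir with mass transport.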
For the molecule B1, the Kd stood at 0.56 nM, the “T ½” value was determined as 6.69 min, the koff came out at 0.00173 s⁻¹ and the kon is 3.08e+06 M⁻¹ s⁻¹.

On to B2, for which the Kd worked out at 0.39 nM, the “T ½” value worked out at 9.38 min, the koff amounted to 0.00123 s⁻¹ and the kon is 3.16e+06 M⁻¹ s⁻¹.

On to B3, for which the Kd came to 0.5 nM, the “T ½” value stood at 7.73 min, the koff was found to be 0.0015 s⁻¹ and the kon came to 3e+06 M⁻¹ s⁻¹.

Take B4: the affinity, expressed as Kd, was 3.21 nM; the “T ½” value turned out to be 1.09 min; the koff is 0.0106 s⁻¹; the kon worked out at 3.3e+06 M⁻¹ s⁻¹.

As for B5, the Kd amounted to 0.8 nM, the “T ½” value turned out to be 6 min, the koff stood at 0.00193 s⁻¹ and the association rate constant (kon) came to 2.42e+06 M⁻¹ s⁻¹.

Turning to B6, binding was characterised by a dissociation constant (Kd) of 0.59 nM, the “T ½” value came to 8.18 min, the koff was determined as 0.00141 s⁻¹ and the kon was 2.39e+06 M⁻¹ s⁻¹.

As to B7, the Kd was 0.52 nM, the “T ½” value turned out to be 6.7 min, the koff was 0.00173 s⁻¹ and the on-rate (kon) was determined as 3.32e+06 M⁻¹ s⁻¹.

For B8, the dissociation constant (Kd) is 0.49 nM, the “T ½” value amounted to 9.19 min, the koff amounted to 0.00126 s⁻¹ and the kon is 2.55e+06 M⁻¹ s⁻¹.

Turning to B9, the Kd stood at 0.58 nM, the “T ½” value amounted to 6.39 min, the koff was 0.00181 s⁻¹ and the kon turned out to be 3.13e+06 M⁻¹ s⁻¹.

Take B10: binding was put at a Kd of 0.37 nM, the “T ½” value is 9.82 min, the dissociation rate constant (koff) stood at 0.00118 s⁻¹ and the on-rate (kon) came to 3.15e+06 M⁻¹ s⁻¹.

For B11, the Kd amounted to 0.37 nM, the “T ½” value amounted to 10.1 min, the koff turned out to be 0.00114 s⁻¹ and the kon was 3.08e+06 M⁻¹ s⁻¹.

Turning to B12, the affinity, expressed as Kd, was 1.12 nM; the “T ½” value is 3.2 min; the koff came to 0.00361 s⁻¹; the association rate constant (kon) was determined as 3.22e+06 M⁻¹ s⁻¹.

With B13, binding was put at a Kd of 0.54 nM, the “T ½” value was determined as 6.37 min, the koff was determined as 0.00181 s⁻¹ and the kon is 3.33e+06 M⁻¹ s⁻¹.

With B14, binding was characterised by a dissociation constant (Kd) of 1.37 nM, the “T ½” value amounted to 2.49 min, the off-rate constant (koff) worked out at 0.00465 s⁻¹ and the kon came out at 3.4e+06 M⁻¹ s⁻¹.

For the molecule B15, the Kd was determined as 0.5 nM, the “T ½” value turned out to be 7.62 min, the koff worked out at 0.00152 s⁻¹ and the kon is 3.05e+06 M⁻¹ s⁻¹.

For B16, the Kd worked out at 0.65 nM, the “T ½” value worked out at 5.85 min, the off-rate constant (koff) is 0.00197 s⁻¹ and the kon came out at 3.03e+06 M⁻¹ s⁻¹.

Regarding B17, the Kd is 20.6 nM, the “T ½” value is 0.04 min, the koff is 0.314 s⁻¹ and the kon is 1.52e+07 M⁻¹ s⁻¹.

As to B18, the Kd amounted to 0.32 nM, the “T ½” value worked out at 12.7 min, the koff worked out at 0.000913 s⁻¹ and the on-rate constant (kon) came out at 2.81e+06 M⁻¹ s⁻¹.

As to B19, the affinity, expressed as Kd, was 0.53 nM; the “T ½” value stood at 7.22 min; the koff was 0.0016 s⁻¹; the kon worked out at 3.04e+06 M⁻¹ s⁻¹.

The target in a further experiment is T2, cynomolgus monkey BCMA (cynomolgus monkey, UniProt A0A2K5UD97 1-53).
T2 construct: Soluble analyte in SPR; construct not described; also called cyBCMA; Cyno BCMA
T2 sequence (A0A2K5UD97 entry or part of it): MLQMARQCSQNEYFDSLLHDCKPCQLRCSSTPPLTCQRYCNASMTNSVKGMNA
Description: SPR, IgG immobilised, 37 C. The method in brief:
as §1
Regarding B1, the Kd was 1.94 nM, the “T ½” value stood at 2.14 min, the koff was 0.00539 s⁻¹ and the kon was found to be 2.77e+06 M⁻¹ s⁻¹.

As to B2, the Kd turned out to be 1.35 nM, the “T ½” value turned out to be 3.91 min, the koff was determined as 0.00296 s⁻¹ and the kon was 2.19e+06 M⁻¹ s⁻¹.

Turning to B3, the Kd worked out at 2.22 nM, the “T ½” value amounted to 2.2 min, the koff was found to be 0.00526 s⁻¹ and the kon stood at 2.37e+06 M⁻¹ s⁻¹.

Regarding B4, the equilibrium dissociation constant (Kd) is 1.86 nM, the “T ½” value came out at 4.3 min, the koff turned out to be 0.00269 s⁻¹ and the association rate constant (kon) was 1.45e+06 M⁻¹ s⁻¹.

Take B5: the affinity, expressed as Kd, was 2.74 nM; the “T ½” value turned out to be 2.68 min; the koff came to 0.00431 s⁻¹; the kon is 1.58e+06 M⁻¹ s⁻¹.

Take B6: binding was put at a Kd of 2.41 nM, the “T ½” value came out at 1.96 min, the koff came to 0.00591 s⁻¹ and the kon stood at 2.45e+06 M⁻¹ s⁻¹.

As to B7, the affinity, expressed as Kd, was 1.58 nM; the “T ½” value turned out to be 3.25 min; the koff worked out at 0.00356 s⁻¹; the on-rate (kon) turned out to be 2.25e+06 M⁻¹ s⁻¹.

Regarding B8, the Kd was determined as 2.65 nM, the “T ½” value worked out at 2.02 min, the koff was found to be 0.00572 s⁻¹ and the kon came out at 2.16e+06 M⁻¹ s⁻¹.

For the molecule B9, binding was put at a Kd of 2.23 nM, the “T ½” value is 2.35 min, the koff amounted to 0.00491 s⁻¹ and the kon was 2.2e+06 M⁻¹ s⁻¹.

As for B10, the Kd worked out at 1.88 nM, the “T ½” value came to 2.14 min, the koff turned out to be 0.0054 s⁻¹ and the kon amounted to 2.87e+06 M⁻¹ s⁻¹.

For the molecule B11, the Kd was 1.7 nM, the “T ½” value was 2.64 min, the koff was determined as 0.00437 s⁻¹ and the kon came out at 2.57e+06 M⁻¹ s⁻¹.

Consider B12, for which binding was characterised by a dissociation constant (Kd) of 1.99 nM, the “T ½” value came out at 3.06 min, the koff was 0.00378 s⁻¹ and the kon was 1.9e+06 M⁻¹ s⁻¹.

In the case of B13, the affinity, expressed as Kd, was 1.7 nM; the “T ½” value stood at 2.63 min; the off-rate (koff) is 0.00439 s⁻¹; the association rate constant (kon) came to 2.58e+06 M⁻¹ s⁻¹.

On to B14, for which the Kd is 1.89 nM, the “T ½” value was determined as 2.81 min, the koff is 0.00411 s⁻¹ and the kon worked out at 2.17e+06 M⁻¹ s⁻¹.

For the molecule B15, binding was put at a Kd of 1.95 nM, the “T ½” value worked out at 2.56 min, the dissociation rate constant (koff) was 0.00451 s⁻¹ and the kon amounted to 2.32e+06 M⁻¹ s⁻¹.

With B16, binding was put at a Kd of 1.78 nM, the “T ½” value was found to be 2.9 min, the koff is 0.00399 s⁻¹ and the kon amounted to 2.24e+06 M⁻¹ s⁻¹.

B17: the affinity, expressed as Kd, was 0.97 nM; the “T ½” value was found to be 18.2 min; the koff turned out to be 0.000636 s⁻¹; the on-rate constant (kon) is 657000 M⁻¹ s⁻¹.

On to B18, for which binding was put at a Kd of 3.63 nM, the “T ½” value stood at 1.46 min, the koff came out at 0.00789 s⁻¹ and the on-rate (kon) stood at 2.17e+06 M⁻¹ s⁻¹.

On to B19, for which the Kd was 3.65 nM, the “T ½” value stood at 1.21 min, the koff came out at 0.00955 s⁻¹ and the kon is 2.62e+06 M⁻¹ s⁻¹.
